This passage reports Ki results from US20170240595.

Bridges are numbered along the chain shown (N, C = ends). Where no end group is shown, it is not given here. [ ]: non-standard residue; d: D form. 1Nal = N[C@@H](Cc1cccc2ccccc12)C(=O)O; 2Nal = N[C@@H](Cc1ccc2ccccc2c1)C(=O)O; d2Nal = N[C@H](Cc1ccc2ccccc2c1)C(=O)O; hPhe = N[C@@H](CCc1ccccc1)C(=O)O; Cha = N[C@@H](CC1CCCCC1)C(=O)O; dCha = N[C@H](CC1CCCCC1)C(=O)O; dTle = CC(C)(C)[C@@H](N)C(=O)O; Nle = CCCC[C@H](N)C(=O)O; Apn = not defined here; Bal = not defined here; Ahx = NCCCCCC(=O)O; GABA = NCCCC(=O)O; βAla = NCCC(=O)O

B1: Ac-Nle-c(Asp-His-D-Phe-Arg-Trp-β-Ala-Lys)-NH2 (peptide)
chain: Ac-[Nle]DH[dF]RW[βAla]K-NH2
modifications: lactam 2-8
SMILES: CCCC[C@H](NC(C)=O)C(=O)N[C@H]1CC(=O)NCCCC[C@@H](C(N)=O)NC(=O)CCNC(=O)[C@H](Cc2c[nH]c3ccccc23)NC(=O)[C@H](CCCNC(=N)N)NC(=O)[C@@H](Cc2ccccc2)NC(=O)[C@H](Cc2c[nH]cn2)NC1=O
B2: Ac-Nle-c(Cys-D-Leu-His-D-Phe-Arg-Trp-Cys)-NH2 (peptide)
chain: Ac-[Nle]C[dL]H[dF]RWC-NH2
modifications: disulfide 2-8
SMILES: CCCC[C@H](NC(C)=O)C(=O)N[C@H]1CSSC[C@@H](C(N)=O)NC(=O)[C@H](Cc2c[nH]c3ccccc23)NC(=O)[C@H](CCCNC(=N)N)NC(=O)[C@@H](Cc2ccccc2)NC(=O)[C@H](Cc2c[nH]cn2)NC(=O)[C@@H](CC(C)C)NC1=O
B3: Ac-c(Cys-D-Ala-His-D-Phe-Arg-2-Nal-Ala-Cys)-NH2 (peptide)
chain: Ac-C[dA]H[dF]R[2Nal]AC-NH2
modifications: disulfide 1-8
SMILES: CC(=O)N[C@H]1CSSC[C@@H](C(N)=O)NC(=O)[C@H](C)NC(=O)[C@H](Cc2ccc3ccccc3c2)NC(=O)[C@H](CCCNC(=N)N)NC(=O)[C@@H](Cc2ccccc2)NC(=O)[C@H](Cc2c[nH]cn2)NC(=O)[C@@H](C)NC1=O
B4: Ac-2-Nal-c(Cys-His-D-Phe-Arg-Trp-Gaba-Cys)-NH2 (peptide)
chain: Ac-[2Nal]CH[dF]RW[GABA]C-NH2
modifications: disulfide 2-8
SMILES: CC(=O)N[C@@H](Cc1ccc2ccccc2c1)C(=O)N[C@H]1CSSC[C@@H](C(N)=O)NC(=O)CCCNC(=O)[C@H](Cc2c[nH]c3ccccc23)NC(=O)[C@H](CCCNC(=N)N)NC(=O)[C@@H](Cc2ccccc2)NC(=O)[C@H](Cc2c[nH]cn2)NC1=O
B5: Ac-Cha-c(Asp-His-D-2-Nal-Arg-Trp-Gaba-Lys)-NH2 (peptide)
chain: Ac-[Cha]DH[d2Nal]RW[GABA]K-NH2
modifications: lactam 2-8
SMILES: CC(=O)N[C@@H](CC1CCCCC1)C(=O)N[C@H]1CC(=O)NCCCC[C@@H](C(N)=O)NC(=O)CCCNC(=O)[C@H](Cc2c[nH]c3ccccc23)NC(=O)[C@H](CCCNC(=N)N)NC(=O)[C@@H](Cc2ccc3ccccc3c2)NC(=O)[C@H](Cc2c[nH]cn2)NC1=O
B6: Ac-Nle-c(Cys-D-Ala-His-D-2-Nal-Arg-2-Nal-Cys)-NH2 (peptide)
chain: Ac-[Nle]C[dA]H[d2Nal]R[2Nal]C-NH2
modifications: disulfide 2-8
SMILES: CCCC[C@H](NC(C)=O)C(=O)N[C@H]1CSSC[C@@H](C(N)=O)NC(=O)[C@H](Cc2ccc3ccccc3c2)NC(=O)[C@H](CCCNC(=N)N)NC(=O)[C@@H](Cc2ccc3ccccc3c2)NC(=O)[C@H](Cc2c[nH]cn2)NC(=O)[C@@H](C)NC1=O
B7: Ac-Nle-c(Cys-D-Ala-His-D-2-Nal-Arg-1-Nal-Cys)-NH2 (peptide)
chain: Ac-[Nle]C[dA]H[d2Nal]R[1Nal]C-NH2
modifications: disulfide 2-8
SMILES: CCCC[C@H](NC(C)=O)C(=O)N[C@H]1CSSC[C@@H](C(N)=O)NC(=O)[C@H](Cc2cccc3ccccc23)NC(=O)[C@H](CCCNC(=N)N)NC(=O)[C@@H](Cc2ccc3ccccc3c2)NC(=O)[C@H](Cc2c[nH]cn2)NC(=O)[C@@H](C)NC1=O
B8: Ac-Nle-c(Cys-D-Cha-His-D-Phe-Arg-Trp-Cys)-NH2 (peptide)
chain: Ac-[Nle]C[dCha]H[dF]RWC-NH2
modifications: disulfide 2-8
SMILES: CCCC[C@H](NC(C)=O)C(=O)N[C@H]1CSSC[C@@H](C(N)=O)NC(=O)[C@H](Cc2c[nH]c3ccccc23)NC(=O)[C@H](CCCNC(=N)N)NC(=O)[C@@H](Cc2ccccc2)NC(=O)[C@H](Cc2c[nH]cn2)NC(=O)[C@@H](CC2CCCCC2)NC1=O
B9: Ac-Cha-c(Cys-His-D-Phe-Arg-Trp-Gaba-Cys)-NH2 (peptide)
chain: Ac-[Cha]CH[dF]RW[GABA]C-NH2
modifications: disulfide 2-8
SMILES: CC(=O)N[C@@H](CC1CCCCC1)C(=O)N[C@H]1CSSC[C@@H](C(N)=O)NC(=O)CCCNC(=O)[C@H](Cc2c[nH]c3ccccc23)NC(=O)[C@H](CCCNC(=N)N)NC(=O)[C@@H](Cc2ccccc2)NC(=O)[C@H](Cc2c[nH]cn2)NC1=O
B10: Ac-Nle-c(Cys-His-D-Phe-Arg-Trp-Ahx-Cys)-NH2 (peptide)
chain: Ac-[Nle]CH[dF]RW[Ahx]C-NH2
modifications: disulfide 2-8
SMILES: CCCC[C@H](NC(C)=O)C(=O)N[C@H]1CSSC[C@@H](C(N)=O)NC(=O)CCCCCNC(=O)[C@H](Cc2c[nH]c3ccccc23)NC(=O)[C@H](CCCNC(=N)N)NC(=O)[C@@H](Cc2ccccc2)NC(=O)[C@H](Cc2c[nH]cn2)NC1=O

The target in the experiment is hMC4-R (human), P32245. The experiment in a line: competition. Conditions: modification not given.
Sequence of hMC4-R (human), P32245 (P32245 whole entry): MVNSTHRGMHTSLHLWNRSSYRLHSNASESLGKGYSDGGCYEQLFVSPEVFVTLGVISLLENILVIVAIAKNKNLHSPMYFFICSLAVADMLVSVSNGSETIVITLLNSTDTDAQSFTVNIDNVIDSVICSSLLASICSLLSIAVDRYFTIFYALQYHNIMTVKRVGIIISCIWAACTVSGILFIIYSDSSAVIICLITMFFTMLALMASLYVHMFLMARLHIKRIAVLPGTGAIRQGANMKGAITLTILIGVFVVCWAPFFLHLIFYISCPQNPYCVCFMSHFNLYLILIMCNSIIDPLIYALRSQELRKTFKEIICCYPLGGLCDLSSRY
Usually Ki stands for a dissociation constant, usually derived from enzyme kinetics or from competition with a known ligand. High values mean lower affinity, low ones higher affinity. For [Nle]CH[dF]RW[Apn]C-NH2 (disulfide 2-8; reading uncertain) [Nle-c(Cys-His-D-Phe-Arg-Trp-Apn-Cys)-NH2], the Ki was 0.85 nM.

With [Nle]CH[dF]RW[GABA]C-NH2 (disulfide 2-8) [Nle-c(Cys-His-D-Phe-Arg-Trp-Gaba-Cys)-NH2], the inhibitory constant (Ki) came out at 0.47 nM. Then B1, with 0.617 nM. Then B2, with 4.13 nM.

As to B3, the Ki is 40.7 nM. Then Ac-[Nle]CH[dF]RW[Apn]C-NH2 (disulfide 2-8; reading uncertain) [Ac-Nle-c(Cys-His-D-Phe-Arg-Trp-Apn-Cys)-NH2], with 0.894 nM. Turning to Ac-[Nle]DH[dF]RW[Apn]K-NH2 (lactam 2-8; reading uncertain) [Ac-Nle-c(Asp-His-D-Phe-Arg-Trp-Apn-Lys)-NH2], the Ki worked out at 11.1 nM.

With Ac-[hPhe]DH[dF]RW[GABA]K-NH2 (lactam 2-8) [Ac-hPhe-c(Asp-His-D-Phe-Arg-Trp-Gaba-Lys)-NH2], the Ki was 3.37 nM.

On to Ac-[Nle]DH[dF]RW[GABA]K-NH2 (lactam 2-8) [Ac-Nle-c(Asp-His-D-Phe-Arg-Trp-Gaba-Lys)-NH2], for which the Ki is 1.04 nM. The same measure for Ac-[hPhe]DH[d2Nal]RW[GABA]K-NH2 (lactam 2-8) [Ac-hPhe-c(Asp-His-D-2-Nal-Arg-Trp-Gaba-Lys)-NH2]: 0.931 nM; for Ac-[Nle]C[dA]H[d2Nal]R[Bal]C-NH2 (disulfide 2-8; reading uncertain) [Ac-Nle-c(Cys-D-Ala-His-D-2-Nal-Arg-Bal-Cys)-NH2]: 16.6 nM; for B4: 2.94 nM. The same measure for Ac-[Nle]C[dTle]H[dF]RWC-NH2 (disulfide 2-8) [Ac-Nle-c(Cys-D-Tle-His-D-Phe-Arg-Trp-Cys)-NH2]: 11.2 nM; for Ac-[Nle]C[dI]H[dF]RWC-NH2 (disulfide 2-8) [Ac-Nle-c(Cys-D-Ile-His-D-Phe-Arg-Trp-Cys)-NH2]: 9 nM. Then B5, with 2.82 nM; and Ac-[Nle]CH[d2Nal]RW[GABA]C-NH2 (disulfide 2-8) [Ac-Nle-c(Cys-His-D-2-Nal-Arg-Trp-Gaba-Cys)-NH2], with 0.375 nM; and B6, with 2.53 nM. In turn, Ac-[Nle]CH[d2Nal]RW[Ahx]C-NH2 (disulfide 2-8) [Ac-Nle-c(Cys-His-D-2-Nal-Arg-Trp-Ahx-Cys)-NH2] showed a Ki of 0.998 nM.

On to B7, for which the Ki came to 3.07 nM.

Molecule B8 returned an inhibition constant Ki of 1.41 nM.

The molecule Ac-[Nle]C[dV]H[dF]RWC-NH2 (disulfide 2-8) [Ac-Nle-c(Cys-D-Val-His-D-Phe-Arg-Trp-Cys)-NH2] returned an inhibition constant (Ki) of 10.1 nM.

Regarding B9, the inhibitory constant (Ki) was 0.884 nM. Consider B10, for which the inhibition constant Ki stood at 1.23 nM.
